# From the supplement of paper PMC9170038
# System: MS2 coat protein
# Assay: apparent KD of MS2 coat protein; higher = weaker reporter binding
# Settings: Eterna round: R107; input ligand: arginine 13.2 mM
# Summary of the method: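 Designed RNA switches, transcribed on-chip from Illumina sequencing clusters, were titrated with SNAP-549-labelled MS2 coat protein from 0.7 or 1.5 nM to 3 µM in twofold steps. The solution was 100 mM Tris-HCl pH 7.5, 80 mM KCl, 4 mM MgCl2, with constant ligand or without it. Apparent KD is the median over each design's normalised cluster binding-curve fits.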
row,Sequence,apparent KD of MS2 coat protein [nM]
1,GUGGACAUGAGGAUCACCCAUGUAAGUCGGCGAGGACCGGUACGGCCGCCACUCGUGUUCUGUCUCAGCUCAAACGUAGCCGGAA [theeternabot_sameState_MS2_Trp_A_13],34.2
2,UGUAUGGACUGAAGGAGCGCCUCAAAAUAACUUGAGGAUCACCCAAGUAAGGCGAAAGCCGGGCAGGUAGGUCGCAGUCCAUACU [ArgBX 3],24.1
3,UGUAACAUGAGGAUCACCCAUGUGAGUGAUACCAGACUAGUGUUGGUCCCUUGGCAGCACGCUGGGCGAGUGUGUAGUCUAUGCG [Same State - Theophylline A (Freestyle 17)],64.5
4,GGCGACAUGAGGAUCACCCAUGUGACACCUCGAGGACCGGUACGGCCGCCACUCGUAACCUGCACUAUAGCUACCACGAUUAGCC [theeternabot_sameState_MS2_Trp_A_44],84.3
5,CAAUAUAUAUGAAGGAGCGUCGAAAAUGGGUAAACAUGAGGAUCACCCAUGUAAAGGGAACGACAGGUAGGUCGCAUAUGUAUUG [AstromonsSSArgB#9],171
6,CUGCCAUGCAGGGAUACCAGUGCGUUCAGAACAUGAGGAUCACCCAUGUCGUCUGCCGAUCACCCUUGGCAGCUCUGCAUGGCAG [#05 Same State - Theophylline B],9.22
7,GGUUACUCUACGGCCGCCACUGGGCAUGUAAAUAACAUGAGGAUCACCCAUGUGGAUUAAAAUUACAGGACCGGGUAGUGUAACC [Tryptophan B 21],86.6
8,AACCGAGGCUAUCCUCUACGACUAUGUGAUACCAGAAUAAUUUUAUUCCCUUGGCAGCAUGACAUGAGGAUCACCCAUGUCUCUU [SSTheo A #9],24
9,AUCCUCUAGAAUGAUACCAGACCAAACAUGAGGAUCACCCAUGUAUCAGGCAAUUGUUACGUCCCUUGGCAGCAUGUAUGCCGAC [Theo B SS t3],17.7
10,CGUCGAGACUGAAGGAGCGAGAUAACAACAUUGGGUCUCAACACAUGAGGAUCACCCAUGUCUCAGGUAGGUCGCGGUGUCACCG [Exclusion Arginine B GF21],142
11,GGACUAACCAGAAGGAGCGGCGCGCAGAAACUGCUAAUUCCUCCGCACGAGGAUCACCCGUGUCAGGUAGGUCGCUGGUUAGUCG [ArgBX 28],10.3
12,AAAGAUCGGAAACGAUCGGCGGCUUGGGCGCGAGGACCGGUACGGCCGCCACUCGGGCAACAUGAGGAUCACCCAUGUUCCUCAU [ETA NP+V+V2 #17],75.5
13,UGCAAAUGAUGAGAUACCAGUUCAGUUAAAUACAUGAGGAUCACCCAUGUCAGGGAACUCAACCCUUGGCAGCUCGAUGCACUCA [theeternabot_sameState_MS2_Theo_B_43],48
14,ACAUGAGCAUCAGCCUUGUAGGAACUAGAUACCAGCCCAACAUGAGGCCCUUGGCAGCUGACAACAUGAGGAUCACCCAUGUCAC [Exclusion - Theophylline A #1],20.1
15,UGUAACAUGAGGAUCACCCAUGUGAGUGAUACCAGAUAAGUAGUAGUCCCUUGGCAGCAUAUUGGGCGAGUGUAUAGUCUAUGCG [Same State - Theophylline A (Freestyle 9)],125
16,UAAUCUGGUCUUCGAUAGGUGAUCCUCAAACGAGGACCGGUACGGCCGCCACUCGAUAACAUGAGGAUCACCCAUGUACGAGUGA [|T'-M'-Trp-Ms2|_Design16b],52.8

# Same assay, conditions: Eterna round: R107; input ligand: none
row,Sequence,apparent KD of MS2 coat protein [nM]
1,UGUAUGGACUGAAGGAGCGCCUCAAAAUAACUUGAGGAUCACCCAAGUAAGGCGAAAGCCGGGCAGGUAGGUCGCAGUCCAUACU [ArgBX 3],10.6
2,CAAUAUAUAUGAAGGAGCGUCGAAAAUGGGUAAACAUGAGGAUCACCCAUGUAAAGGGAACGACAGGUAGGUCGCAUAUGUAUUG [AstromonsSSArgB#9],165
3,CUGCCAUGCAGGGAUACCAGUGCGUUCAGAACAUGAGGAUCACCCAUGUCGUCUGCCGAUCACCCUUGGCAGCUCUGCAUGGCAG [#05 Same State - Theophylline B],9.69
4,GGUUACUCUACGGCCGCCACUGGGCAUGUAAAUAACAUGAGGAUCACCCAUGUGGAUUAAAAUUACAGGACCGGGUAGUGUAACC [Tryptophan B 21],300
5,CGUCGAGACUGAAGGAGCGAGAUAACAACAUUGGGUCUCAACACAUGAGGAUCACCCAUGUCUCAGGUAGGUCGCGGUGUCACCG [Exclusion Arginine B GF21],195
6,AAAGAUCGGAAACGAUCGGCGGCUUGGGCGCGAGGACCGGUACGGCCGCCACUCGGGCAACAUGAGGAUCACCCAUGUUCCUCAU [ETA NP+V+V2 #17],146
7,UAAUCUGGUCUUCGAUAGGUGAUCCUCAAACGAGGACCGGUACGGCCGCCACUCGAUAACAUGAGGAUCACCCAUGUACGAGUGA [|T'-M'-Trp-Ms2|_Design16b],134

# Same assay, conditions: Eterna round: R107; input ligand: theophylline 20 uM
row,Sequence,apparent KD of MS2 coat protein [nM]
1,GUGGACAUGAGGAUCACCCAUGUAAGUCGGCGAGGACCGGUACGGCCGCCACUCGUGUUCUGUCUCAGCUCAAACGUAGCCGGAA [theeternabot_sameState_MS2_Trp_A_13],51.8
2,UGUAUGGACUGAAGGAGCGCCUCAAAAUAACUUGAGGAUCACCCAAGUAAGGCGAAAGCCGGGCAGGUAGGUCGCAGUCCAUACU [ArgBX 3],28.1
3,UGUAACAUGAGGAUCACCCAUGUGAGUGAUACCAGACUAGUGUUGGUCCCUUGGCAGCACGCUGGGCGAGUGUGUAGUCUAUGCG [Same State - Theophylline A (Freestyle 17)],100
4,GGCGACAUGAGGAUCACCCAUGUGACACCUCGAGGACCGGUACGGCCGCCACUCGUAACCUGCACUAUAGCUACCACGAUUAGCC [theeternabot_sameState_MS2_Trp_A_44],238
5,CAAUAUAUAUGAAGGAGCGUCGAAAAUGGGUAAACAUGAGGAUCACCCAUGUAAAGGGAACGACAGGUAGGUCGCAUAUGUAUUG [AstromonsSSArgB#9],195
6,CUGCCAUGCAGGGAUACCAGUGCGUUCAGAACAUGAGGAUCACCCAUGUCGUCUGCCGAUCACCCUUGGCAGCUCUGCAUGGCAG [#05 Same State - Theophylline B],9.45
7,GGUUACUCUACGGCCGCCACUGGGCAUGUAAAUAACAUGAGGAUCACCCAUGUGGAUUAAAAUUACAGGACCGGGUAGUGUAACC [Tryptophan B 21],239
8,AACCGAGGCUAUCCUCUACGACUAUGUGAUACCAGAAUAAUUUUAUUCCCUUGGCAGCAUGACAUGAGGAUCACCCAUGUCUCUU [SSTheo A #9],38.8
